Molecular target: T1, human C1q (human, UniProt P02745 23-245; P02746 28-253; P02747 29-245)
T1 construct: Human C1q (Sigma) in the ELISA; hC1q coated at 100 nM in the RIA; also called hC1q
Assay: RIA, 35S-labelled Fc on coated C1q
Excerpt: IgG1 Fc variants arising from round three outputs of Fcγ1 selections against human C1q using ribosome display, were screened for binding using the primary RIA as described in Jermutus et al. (2001, PNAS 98(1): 75-80). In brief, the Fc region from the plasmid for each variant (96 well format) was PCR amplified to produce a linear DNA template. This template was gel purified and reamplified attaching the T7 promoter sequence for T7 directed in vitro transcription and the resulting mRNA purified on G25 Sephadex columns. For each variant, in vitro translations in the presence of 35S-labelled methionine was performed at 37° C. for 40 mins. The translations were stopped with PBS with 0.05% Tween 20. The translation mixture was incubated on a plate coated with 100 nM hC1q for 2 hours at room temperature. Plates were washed three times in PBS with 0.05% Tween 20 and three times in PBS. The remaining radioactivity was eluted with 0.1M triethylamine and quantified by liquid scintillation counting.

T1 sequence (P02745 23-245 limits assumed, chain 1 of 3): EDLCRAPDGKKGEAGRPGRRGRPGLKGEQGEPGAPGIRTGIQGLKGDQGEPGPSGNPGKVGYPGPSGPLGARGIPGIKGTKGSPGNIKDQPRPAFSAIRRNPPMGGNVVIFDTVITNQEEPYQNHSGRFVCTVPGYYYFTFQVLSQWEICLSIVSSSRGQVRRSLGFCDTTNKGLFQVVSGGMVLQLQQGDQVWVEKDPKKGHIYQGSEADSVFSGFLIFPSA
T1 sequence (P02746 28-253 limits assumed, chain 2 of 3): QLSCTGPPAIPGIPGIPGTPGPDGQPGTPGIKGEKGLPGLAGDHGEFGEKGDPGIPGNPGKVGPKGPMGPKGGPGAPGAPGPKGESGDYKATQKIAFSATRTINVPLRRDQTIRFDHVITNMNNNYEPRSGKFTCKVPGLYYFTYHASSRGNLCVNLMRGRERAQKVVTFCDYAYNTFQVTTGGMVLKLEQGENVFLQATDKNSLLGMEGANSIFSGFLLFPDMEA
T1 sequence (P02747 29-245 limits assumed, chain 3 of 3): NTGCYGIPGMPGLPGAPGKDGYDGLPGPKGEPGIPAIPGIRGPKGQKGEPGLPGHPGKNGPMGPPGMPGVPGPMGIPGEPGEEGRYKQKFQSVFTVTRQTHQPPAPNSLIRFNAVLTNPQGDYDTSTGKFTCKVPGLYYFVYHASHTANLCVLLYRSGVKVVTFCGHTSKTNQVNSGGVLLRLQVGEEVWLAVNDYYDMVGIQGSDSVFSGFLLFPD

B1: Fc polypeptide variant 2F01 (Fcγ1, in vitro translated) (other)
chain: AHTCPPCPAPELLGGPPVFLFPPKPKDTLMIPRTPEVTCVVVDVNHEDPEVKFNWYVDGVEVRNAKTKPREEQYNSTYRVVSVLTVLHQDWLSGKEYKCKVSNKALPAPIEKTISKAKGQPREPQVYTLPPSREEMTKNQVSLTCLVKGLYPSDITVEWESNGQPENDCKTTPPVLDSDGSSFLYSKLTVDKSRWQQGNVFSCSVMHKAPHNHYTQKSLSLSPGE
notes: Fc region only, in vitro translated with 35S-methionine for RIA
  RIA for C1q: 1.5 fold over wild-type

— patent publication US20100184959A1 (AstraZeneca / MedImmune, published 2010)
